Reference: publication PMC6202051, “The DWORF micropeptide enhances contractility and prevents heart failure in a mouse model of dilated cardiomyopathy” (eLife, 2018)
Blank lines part the entries; values can stand above or below the molecule they belong to. Ends that are not written are not given here. YFP = yellow fluorescent protein

Key:
mCerulean (Cer)-SERCA2a [1] = target: mCerulean (Cer)-SERCA2a (UniProt O55143); assay: FRET or BRET; progressive acceptor photobleaching of YFP in live transfected AAV-293 cells; donor against acceptor fluorescence, a linear relationship taken as a 1:1 complex
Chain of mCerulean (Cer)-SERCA2a (UniProt O55143) (O55143 other isoform, or with tags, fused parts or gaps): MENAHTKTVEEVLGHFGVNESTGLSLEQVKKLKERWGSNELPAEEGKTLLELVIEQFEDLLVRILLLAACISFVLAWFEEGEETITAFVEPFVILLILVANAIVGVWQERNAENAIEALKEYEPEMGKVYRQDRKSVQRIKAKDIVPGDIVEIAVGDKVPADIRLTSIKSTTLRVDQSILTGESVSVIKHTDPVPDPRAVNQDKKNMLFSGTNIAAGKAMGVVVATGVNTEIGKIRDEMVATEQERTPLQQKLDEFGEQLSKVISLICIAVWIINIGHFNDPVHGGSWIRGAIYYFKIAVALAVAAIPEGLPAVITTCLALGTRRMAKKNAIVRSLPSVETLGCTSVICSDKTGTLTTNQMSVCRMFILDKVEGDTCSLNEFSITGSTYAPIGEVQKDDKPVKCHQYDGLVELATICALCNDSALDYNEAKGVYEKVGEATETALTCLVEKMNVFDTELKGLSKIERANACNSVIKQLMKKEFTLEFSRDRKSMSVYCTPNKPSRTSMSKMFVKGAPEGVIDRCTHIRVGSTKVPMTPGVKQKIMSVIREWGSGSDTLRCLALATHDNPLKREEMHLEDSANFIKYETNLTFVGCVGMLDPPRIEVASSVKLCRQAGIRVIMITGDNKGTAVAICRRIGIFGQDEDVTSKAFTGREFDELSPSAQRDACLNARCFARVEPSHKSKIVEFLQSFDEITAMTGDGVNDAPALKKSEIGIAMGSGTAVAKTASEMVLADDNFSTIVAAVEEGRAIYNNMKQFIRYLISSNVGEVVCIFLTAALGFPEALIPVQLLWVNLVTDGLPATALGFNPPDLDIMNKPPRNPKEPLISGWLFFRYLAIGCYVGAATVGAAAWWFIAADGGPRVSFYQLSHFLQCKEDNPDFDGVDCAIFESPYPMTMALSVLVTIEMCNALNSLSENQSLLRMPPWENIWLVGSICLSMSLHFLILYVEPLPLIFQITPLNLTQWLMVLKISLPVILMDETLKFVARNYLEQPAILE

mCerulean (Cer)-SERCA2a [2] = target: T1, mCerulean (Cer)-SERCA2a (UniProt O55143-2 1-998); assay: as above; details: partners not purified
T1 construct: SERCA2a, the predominant cardiac isoform of the sarco(endo)plasmic reticulum Ca2+-ATPase; also called SR Ca2+-ATPase; source: AAV-293 cells, transiently transfected, in live cells
T1 sequence (O55143 other isoform, or with tags, fused parts or gaps): as above

stoichiometry N (mCerulean (Cer)-SERCA2a [1]): 1
Molecule: yellow fluorescent protein (YFP)-DWORF (peptide)

stoichiometry N (mCerulean (Cer)-SERCA2a [2]): 1
B1: yellow fluorescent protein (YFP)-PLN (natural protein, UniProt P61014 1-52, looked up)
chain: {YFP}-MEKVQYLTRSAIRRASTIEMPQQARQNLQNLFINFCLILICLLLICIIVMLL
modifications: cysteine pairing not given here
notes: phospholamban (PLN); In the PLN-PLN and PLN-DWORF FRET experiments one partner must have carried the donor (Cer); it may be another species (e.g. canine) in the cited FRET work; also called phospholamban; source: AAV-293 cells, transiently transfected, in live cells
